In patent US20040214255A1 (MYRIAD GENETICS, published 2004):
One block for each binder: values may come before it.

What was measured:
Assay in all cases: yeast two-hybrid
[1] = biological target: T1, NuMA1, amino acids 98-365 (human, UniProt Q14980 98-365)
T1 construct: range 98-365; also called nuclear mitotic apparatus protein NuMA1
T1 sequence (looked up): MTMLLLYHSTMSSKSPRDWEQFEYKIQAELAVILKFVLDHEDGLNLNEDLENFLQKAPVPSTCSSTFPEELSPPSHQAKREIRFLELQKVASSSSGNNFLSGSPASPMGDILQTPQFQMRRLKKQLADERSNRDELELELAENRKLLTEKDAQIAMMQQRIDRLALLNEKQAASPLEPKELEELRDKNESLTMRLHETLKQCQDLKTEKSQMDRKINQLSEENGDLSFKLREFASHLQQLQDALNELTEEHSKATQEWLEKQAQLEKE
Excerpt: (§1) The new construct was selected directly in the yeast strain PNY200 for its ability to drive tryptophane synthesis (genotype of this strain: […] trp1-901 leu2-3,112 ura3-52 his3-200 ade2 gal4Δ gal80). In these yeast cells, the bait was produced as a C-terminal fusion protein with the DNA binding domain of the transcription factor Ga14 (amino acids 1 to 147). Prey libraries were transformed into the yeast strain BK100 (genotype of this strain: MATα trp1-901 leu2-3,112 ura3-52 his3-200 gal4Δ gal80 LYS2::GAL-HIS3 GAL2-ADE2 met2::GAL7-lacZ), and selected for the ability to drive leucine synthesis. In these yeast cells, each cDNA was expressed as a fusion protein with the transcription activation domain of the transcription factor Ga14 (amino acids 768 to 881) and a 9 amino acid hemagglutinin epitope tag. PNY200 cells (MATα mating type), expressing the bait, were then mated with BK100 cells (MATa mating type), expressing prey proteins from a prey library. The resulting diploid yeast cells expressing proteins interacting with the bait protein were selected for the ability to synthesize tryptophan, leucine, histidine, and adenine. DNA was prepared from each clone, transformed by electroporation into E. coli strain KC8 (Clontech KC8 electrocompetent cells, Catalog No. C2023-1), and the cells were selected on ampicillin-containing plates in the absence of either tryptophane (selection for the bait plasmid) or leucine (selection for the library plasmid). DNA for both plasmids was prepared and sequenced by the dideoxynucleotide chain termination method. The identity of the bait cDNA insert was confirmed and the cDNA insert from the prey library plasmid was identified using the BLAST program to search against public nucleotide and protein databases. Plasmids from the prey library were then individually transformed into yeast cells together with a plasmid driving the synthesis of lamin and 5 other test proteins, respectively, fused to the Ga14 DNA binding domain. Clones that gave a positive signal in the β-galactosidase assay were considered false-positives and discarded. […] Clones that gave a positive signal in the β-galactosidase assay were considered true positives.

[2] = biological target: T2, Tropomyosin 3, amino acids 171-286 (human, UniProt P06753 171-285)
T2 construct: range 171-286
T2 sequence (P06753 171-285 limits assumed): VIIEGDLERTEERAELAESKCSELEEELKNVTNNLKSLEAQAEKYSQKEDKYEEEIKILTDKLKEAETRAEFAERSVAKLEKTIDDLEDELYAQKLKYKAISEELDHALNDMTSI
Excerpt: as §1

[3] = biological target: T3, BAP31, amino acids 111-247 (human, UniProt P51572 111-246)
T3 construct: range 111-247
T3 sequence (looked up): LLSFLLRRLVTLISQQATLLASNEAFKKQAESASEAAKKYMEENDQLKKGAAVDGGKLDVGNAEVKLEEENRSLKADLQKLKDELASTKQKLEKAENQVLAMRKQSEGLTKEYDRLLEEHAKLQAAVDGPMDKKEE
Excerpt: as §1

[4] = biological target: T4, Alpha Acid Glucosidase (GAA), amino acids 513-953 (human, UniProt P10253 513-952)
T4 construct: range 513-953
T4 sequence (P10253 513-952 limits assumed): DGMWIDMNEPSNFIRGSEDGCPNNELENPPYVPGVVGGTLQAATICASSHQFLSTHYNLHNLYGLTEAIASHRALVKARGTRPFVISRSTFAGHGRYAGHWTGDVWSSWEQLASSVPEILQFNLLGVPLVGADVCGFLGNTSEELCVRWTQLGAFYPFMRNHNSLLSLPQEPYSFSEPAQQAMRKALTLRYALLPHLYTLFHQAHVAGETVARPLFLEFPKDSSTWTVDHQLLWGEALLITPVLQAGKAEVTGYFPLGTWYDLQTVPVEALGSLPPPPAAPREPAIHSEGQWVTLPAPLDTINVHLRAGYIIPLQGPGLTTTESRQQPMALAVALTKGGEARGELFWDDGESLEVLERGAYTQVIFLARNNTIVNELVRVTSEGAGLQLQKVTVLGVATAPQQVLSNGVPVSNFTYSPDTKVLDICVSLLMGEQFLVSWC
Excerpt: as §1

[5] = biological target: T5, Insulin-Regulated Membrane-Spanning Aminopeptidase (IRAP), amino acids 129-473 (human, UniProt Q9UIQ6 129-473)
T5 construct: range 129-473; also called vp165; gp160
T5 sequence (Q9UIQ6 129-473 limits assumed): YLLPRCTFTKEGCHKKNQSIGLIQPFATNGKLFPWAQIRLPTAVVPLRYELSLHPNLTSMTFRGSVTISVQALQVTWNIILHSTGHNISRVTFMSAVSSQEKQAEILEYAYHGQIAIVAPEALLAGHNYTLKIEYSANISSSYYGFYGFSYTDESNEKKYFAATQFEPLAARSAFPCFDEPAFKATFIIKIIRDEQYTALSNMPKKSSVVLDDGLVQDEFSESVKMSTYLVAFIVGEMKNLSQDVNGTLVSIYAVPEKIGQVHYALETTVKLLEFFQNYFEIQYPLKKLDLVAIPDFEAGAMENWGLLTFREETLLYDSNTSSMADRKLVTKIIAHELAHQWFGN
Excerpt: as §1

[6] = biological target: T6, 14-3-3-Eta, amino acids 91-246 (human, UniProt Q04917 91-246)
T6 construct: range 91-246
T6 sequence (looked up): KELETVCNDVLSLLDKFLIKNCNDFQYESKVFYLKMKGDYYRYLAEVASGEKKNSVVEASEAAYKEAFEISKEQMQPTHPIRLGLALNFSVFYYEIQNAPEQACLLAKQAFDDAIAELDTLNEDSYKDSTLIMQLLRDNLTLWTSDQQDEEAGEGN
Excerpt: as §1

[7] = biological target: T7, 14-3-3-Zeta, amino acids 79-246 (human, UniProt P63104 79-245)
T7 sequence: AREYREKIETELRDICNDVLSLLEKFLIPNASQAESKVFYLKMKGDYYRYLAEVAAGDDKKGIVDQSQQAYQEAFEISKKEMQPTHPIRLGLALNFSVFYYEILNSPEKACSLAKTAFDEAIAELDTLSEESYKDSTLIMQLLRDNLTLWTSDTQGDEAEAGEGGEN
Excerpt: as §1

[8] = biological target: T8, Dynamin, amino acids 250-700 (human, UniProt Q05193 250-700)
T8 construct: range 250-700
T8 sequence (looked up): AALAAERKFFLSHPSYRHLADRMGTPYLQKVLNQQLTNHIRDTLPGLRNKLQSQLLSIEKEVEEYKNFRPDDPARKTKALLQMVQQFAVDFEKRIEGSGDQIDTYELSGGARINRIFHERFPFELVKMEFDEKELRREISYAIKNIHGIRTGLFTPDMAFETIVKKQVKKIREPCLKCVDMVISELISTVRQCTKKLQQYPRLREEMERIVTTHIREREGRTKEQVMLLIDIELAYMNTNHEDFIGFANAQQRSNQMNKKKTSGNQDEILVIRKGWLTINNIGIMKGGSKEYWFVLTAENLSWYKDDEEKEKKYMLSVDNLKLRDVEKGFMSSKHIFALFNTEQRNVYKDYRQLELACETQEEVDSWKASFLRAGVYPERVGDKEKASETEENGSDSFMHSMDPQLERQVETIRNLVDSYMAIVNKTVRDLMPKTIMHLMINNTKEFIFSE
Excerpt: as §1

[9] = biological target: T9, NuMA1, amino acids 185-361 (human, UniProt Q14980 185-361)
T9 construct: range 185-361; also called nuclear mitotic apparatus protein NuMA1
T9 sequence (looked up): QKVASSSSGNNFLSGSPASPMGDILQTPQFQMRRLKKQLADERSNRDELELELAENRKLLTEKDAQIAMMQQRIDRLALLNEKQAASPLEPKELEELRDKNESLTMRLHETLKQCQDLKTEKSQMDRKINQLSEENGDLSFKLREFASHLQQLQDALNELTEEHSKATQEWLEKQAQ
Excerpt: as §1

[10] = biological target: T10, Dynamin, amino acids 104-365 (human, UniProt Q05193 104-365)
T10 construct: range 104-365
T10 sequence (looked up): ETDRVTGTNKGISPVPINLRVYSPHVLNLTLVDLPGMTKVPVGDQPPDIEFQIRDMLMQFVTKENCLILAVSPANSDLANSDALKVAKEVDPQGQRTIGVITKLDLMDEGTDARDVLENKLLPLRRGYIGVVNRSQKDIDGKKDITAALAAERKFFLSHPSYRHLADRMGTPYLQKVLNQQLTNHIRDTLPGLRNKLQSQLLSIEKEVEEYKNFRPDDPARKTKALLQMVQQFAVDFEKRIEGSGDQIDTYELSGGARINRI
Excerpt: as §1

[11] = biological target: T11, Myosin Heavy Chain (Swiss Protein P13533), amino acids 1589-1909 (human, UniProt P13533 1589-1909)
T11 construct: range 1589-1909; also called cardiac muscle myosin heavy chain; MYSA
T11 sequence (P13533 1589-1909, one chain of several): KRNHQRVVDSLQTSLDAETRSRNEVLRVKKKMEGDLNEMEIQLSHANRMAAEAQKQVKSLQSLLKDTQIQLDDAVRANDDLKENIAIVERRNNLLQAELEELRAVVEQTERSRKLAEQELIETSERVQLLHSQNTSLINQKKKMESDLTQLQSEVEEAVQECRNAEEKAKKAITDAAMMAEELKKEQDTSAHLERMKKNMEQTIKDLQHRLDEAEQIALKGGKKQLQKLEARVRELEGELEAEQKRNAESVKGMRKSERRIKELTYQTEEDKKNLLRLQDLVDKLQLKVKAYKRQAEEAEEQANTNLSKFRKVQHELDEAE
Excerpt: as §1

B1: Akt kinase 2 (Akt2), amino acids 1-152 (enzyme, human, UniProt P31751 1-152, looked up)
chain: MNEVSVIKEGWLHKRGEYIKTWRPRYFLLKSDGSFIGYKERPEAPDQTLPPLNNFSVAECQLMKTERPRPNTFVIRCLQWTTVIERTFHVDSPDEREEWMRAIQMVANSLKQRAPGEDPMDYKCGSPSDSSTTEEMEVAVSKARAKVTMNDF
notes: range 1-152
binding result [1]: binds

B3: Akt kinase 2 (Akt2), amino acids 276-408 (enzyme, human, UniProt P31751 276-408, looked up)
chain: IKLENLMLDKDGHIKITDFGLCKEGISDGATMKTFCGTPEYLAPEVLEDNDYGRAVDWWGLGVVMYEMMCGRLPFYNQDHERLFELILMEEIRFPRTLSPEAKSLLAGLLKKDPKQRLGGGPSDAKEVMEHRF
notes: range 276-408
binding result [3]: binds

B8: Akt kinase 1 (Akt1), amino acids 1-118 (enzyme, human, UniProt P31749 1-118, looked up)
chain: MSDVAIVKEGWLHKRGEYIKTWRPRYFLLKNDGTFIGYKERPQDVDQREAPLNNFSVAQCQLMKTERPRPNTFIIRCLQWTTVIERTFHVETPEEREEWTTAIQTVADGLKKQEEEEM
notes: range 1-118
binding result [9]: binds

B9: GLUT1, amino acids 463-492 (other, human, UniProt P11166 463-492, looked up)
chain: IASGFRQGGASQSDKTPEELFHPLGADSQV
notes: range 463-492; also called Glucose Transporter 1
binding result [10]: binds

B10: Clathrin Assembly Protein (CALM), amino acids 267-484 (other, human, UniProt Q13492 267-484, looked up)
chain: LSQAPSSLLDALEQHLASLEGKKIKDSTAASRATTLSNAVSSLASTGLSLTKVDEREKQAALEEEQARLKALKEQRLKELAKKPHTSLTTAASPVSTSAGGIMTAPAIDIFSTPSSSNSTSKLPNDLLDLQQPTFHPSVHPMSTASQVASTWGDPFSATVDAVDDAIPSLNPFLTKSSGDVHLSISSDVSTFTTRTPTHEMFVGFTPSPVAQPHPSAG
notes: range 267-484
binding result [8]: binds

Results, then the binder that gave them:

binding result [2]: binds
B2: Glut4, amino acids 434-510 (other, human, UniProt P14672 434-509, looked up)
chain: IGMGFQYVAEAMGPYVFLLFAVLLLGFFIFTFLRVPETRGRTFDQISAAFHRTPSLLEQEVKPSTELEYLGPDEND
notes: range 434-510; also called Glucose Transporter 4

binding result [4]: binds
B4: PI-3 kinase p110 subunit, amino acids 1-300 (enzyme)
chain: MCFSFIMPPAMADILDIWAVDSQIASDGSIPVDFLLPTGIYIQLEVPREATISYIKQMLWKQVHNYPMFNLLMDIDSYMFACVNQTAVYEELEDETRRLCDVRPFLPVLKLVTRSCDPGEKLDSKIGVLIGKGLHEFDSLKDPEVNEFRRKMRKFSEEKILSLVGLSWMDWLKQTYPPEHEPSIPENLEDKLYGGKLIVAVHFENCQDVFSFQVSPNMNPIKVNELAIQKRLTIHGKEDEVSPYDYVLQVSGRVEYVFGDHPLIQFQYIRNCVMNRALPHFILVECCKIKKMYEQEMIAI
notes: range 1-300; also called PI-3K110; p110 catalytic subunit of PI-3 kinase

binding result [5]: binds
B5: 14-3-3 Beta, amino acids 97-236 (other, human, UniProt P31946 97-236, looked up)
chain: NDVLELLDKYLIPNATQPESKVFYLKMKGDYFRYLSEVASGDNKQTTVSNSQQAYQEAFEISKKEMQPTHPIRLGLALNFSVFYYEILNSPEKACSLAKTAFDEAIAELDTLNEESYKDSTLIMQLLRDNLTLWTSENQG
notes: range 97-236

binding result [6]: binds
binding result [7]: binds
B6: PI-3K85, amino acids 1-50 (other, human, UniProt P27986 1-50, looked up)
chain: MSAEGYQYRALYDYKKEREEDIDLHLGDILTVNKGSLVALGFSDGQEARP
notes: range 1-50; also called p85 regulatory subunit of PI-3 kinase; PI-3 kinase p85

binding result [8]: binds
B7: Proteosome Activator Subunit Psme3, amino acids 72-254 (other, human, UniProt P61289 72-254, looked up)
chain: LTNSHDGLDGPTYKKRRLDECEEAFQGTKVFVMPNGMLKSNQQLVDIIEKVKPEIRLLIEKCNTVKMWVQLLIPRIEDGNNFGVSIQEETVAELRTVESEAASYLDQISRYYITRAKLVSKIAKYPHVEDYRRTVTEIDEKEYISLRLIISELRNQYVTLHDMILKNIEKIKRPRSSNAETLY
notes: range 72-254

binding result [11]: binds
Binder: TYFKVPETKGRTFDEIASGFRQGGASQSDKTPEELFHPLGADSQV (other, human, UniProt P11166 448-492, looked up, range 448-493; also called GLUT1; Glut1) [Glucose Transporter 1, amino acids 448-493]
